Test results reported in the supplement of paper PMC7877785.
± gives the uncertainty stated by the source.

Test: self-splicing fitness, log relative to wild type (ln ratio); higher = more splicing; Tetrahymena group I intron in knt gene, E. coli kanamycin selection, DiMSum; sequences stand for … in CUCUCU…GGAGGGAAAAGUUAUCAGGCAUGCACCUGGUAGCUAGUCUUUAAACCAAUAGAUUGCAUCGGUUUAAAAGGCAAGACCGUCAAAUUGCGGGAAAGGGGUCAACAGCCGUUCAGUACCAAGUCUCAGGGGAAACUUUGAGAUGGCCUUGCAAAGGGUAUGGUAAUAAGCUGACGGACAUGGUCCUAACCACGCAGCCAAGUCCUAAGUCAACAGAUCUUCUGUUGAUAUGGAUGCAGUUCACAGACUAAAUGUCGGUCGGGGAAGAUGUAUUCUUCUCAUAAGAUAUAGUCGGACCUCUCCUUAAUGGGAGCUAGCGGAUGAAGUGAUGCAACACUGGAGCCGCUGGGAACUAAUUUGUAUGCGAAAGUAUAUUGAUUAGUUUUGGAGUACUCGUGGUCG
Procedure, shortened: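 Colonies from six replicate transformations of E. coli BL21(DE3) were pooled and amplicon-sequenced on an Illumina HiSeq 2500. The library placed an intron with all eight P1ex-region nucleotides randomised inside the knt kanamycin-resistance gene on pET-22b(+), and cells grew overnight at 37°C or 30°C on LB agar with or without 25 μg/mL kanamycin (plus 100 μg/mL carbenicillin, 50 μM IPTG, 0.2% rhamnose). Fitness is the DiMSum error-weighted combination of wild-type-normalised replicate fold changes, kanamycin versus none.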

## CAUGAGCAAUAUUACGCUGG
30 °C
  self-splicing fitness (ln): -3.36 ± 0.17
37 °C
  self-splicing fitness (ln): -2.58 ± 0.18

## CAUGAGCAAUAUUACGCUUG
30 °C
  self-splicing fitness (ln): -2.74 ± 0.14
37 °C
  self-splicing fitness (ln): -2.97 ± 0.21

## CAUGAGCAAUAUUACGGAAC
30 °C
  self-splicing fitness (ln): -3.01 ± 0.33
37 °C
  self-splicing fitness (ln): -2.65 ± 0.35

## CAUGAGCAAUAUUACGGAAU
30 °C
  self-splicing fitness (ln): -4.62 ± 0.36
37 °C
  self-splicing fitness (ln): -2.58 ± 0.28

## CAUGAGCAAUAUUACGGACA
30 °C
  self-splicing fitness (ln): -3.32 ± 0.48
37 °C
  self-splicing fitness (ln): -0.812 ± 0.25

## CAUGAGCAAUAUUACGGCCA
37 °C
  self-splicing fitness (ln): -1.36 ± 0.41

## CAUGAGCAAUAUUACGGCCU
30 °C
  self-splicing fitness (ln): -2.67 ± 0.19
37 °C
  self-splicing fitness (ln): -2.19 ± 0.25

## CAUGAGCAAUAUUACGUCUG
30 °C
  self-splicing fitness (ln): -1.41 ± 0.073
37 °C
  self-splicing fitness (ln): -1.06 ± 0.073

## CAUGAGCAAUAUUACGUGGG
30 °C
  self-splicing fitness (ln): -4.29 ± 0.27
37 °C
  self-splicing fitness (ln): -3.23 ± 0.32

## CAUGAGCAAUAUUACGUUAU
30 °C
  self-splicing fitness (ln): -3.12 ± 0.14
37 °C
  self-splicing fitness (ln): -2.54 ± 0.24

## CAUUAGCAAUAUUACGAACU
30 °C
  self-splicing fitness (ln): -2.29 ± 0.31
37 °C
  self-splicing fitness (ln): -2.63 ± 0.36

## CAUUAGCAAUAUUACGAAUU
30 °C
  self-splicing fitness (ln): -2.07 ± 0.22
37 °C
  self-splicing fitness (ln): -1.2 ± 0.17

## CAUUAGCAAUAUUACGACGA
30 °C
  self-splicing fitness (ln): -2.25 ± 0.28
37 °C
  self-splicing fitness (ln): -1.6 ± 0.2

## CAUUAGCAAUAUUACGAGCA
30 °C
  self-splicing fitness (ln): -3.42 ± 0.23
37 °C
  self-splicing fitness (ln): -2.28 ± 0.14

## CAUUAGCAAUAUUACGAGCU
30 °C
  self-splicing fitness (ln): -2.57 ± 0.33
37 °C
  self-splicing fitness (ln): -2.7 ± 0.44

## CAUUAGCAAUAUUACGAUAU
30 °C
  self-splicing fitness (ln): -2.91 ± 0.2
37 °C
  self-splicing fitness (ln): -3.27 ± 0.3

## CAUUAGCAAUAUUACGCAUA
30 °C
  self-splicing fitness (ln): -2.03 ± 0.18
37 °C
  self-splicing fitness (ln): -1.06 ± 0.15

## CAUUAGCAAUAUUACGCUGU
30 °C
  self-splicing fitness (ln): -2.72 ± 0.13
37 °C
  self-splicing fitness (ln): -2.21 ± 0.18

## CAUUAGCAAUAUUACGCUUU
30 °C
  self-splicing fitness (ln): -3.35 ± 0.23
37 °C
  self-splicing fitness (ln): -1.06 ± 0.16

## CAUUAGCAAUAUUACGGAGU
30 °C
  self-splicing fitness (ln): -3.87 ± 0.19
37 °C
  self-splicing fitness (ln): -2.7 ± 0.2

## CAUUAGCAAUAUUACGGCCG
30 °C
  self-splicing fitness (ln): 0.721 ± 0.13
37 °C
  self-splicing fitness (ln): 0.409 ± 0.14

## CAUUAGCAAUAUUACGGGCC
30 °C
  self-splicing fitness (ln): -2.71 ± 0.23
37 °C
  self-splicing fitness (ln): -2.95 ± 0.43

## CAUUAGCAAUAUUACGGGGU
30 °C
  self-splicing fitness (ln): -3.26 ± 0.17
37 °C
  self-splicing fitness (ln): -2.25 ± 0.17

## CAUUAGCAAUAUUACGGUCC
37 °C
  self-splicing fitness (ln): -1.72 ± 0.34

## CAUUAGCAAUAUUACGGUCG
30 °C
  self-splicing fitness (ln): -0.452 ± 0.14
37 °C
  self-splicing fitness (ln): 0.576 ± 0.14

## CAUUAGCAAUAUUACGUAAA
30 °C
  self-splicing fitness (ln): -2.93 ± 0.15
37 °C
  self-splicing fitness (ln): -1.34 ± 0.15

## CAUUAGCAAUAUUACGUACA
30 °C
  self-splicing fitness (ln): -2.7 ± 0.21
37 °C
  self-splicing fitness (ln): -2.58 ± 0.2

## CAUUAGCAAUAUUACGUCGU
30 °C
  self-splicing fitness (ln): -4.03 ± 0.26
37 °C
  self-splicing fitness (ln): -0.437 ± 0.17

## CAUUAGCAAUAUUACGUCUG
30 °C
  self-splicing fitness (ln): -0.197 ± 0.062
37 °C
  self-splicing fitness (ln): 0.00612 ± 0.072

## CAUUAGCAAUAUUACGUGCC
30 °C
  self-splicing fitness (ln): -2.77 ± 0.29
37 °C
  self-splicing fitness (ln): -2.26 ± 0.45

## CAUUAGCAAUAUUACGUGGC
30 °C
  self-splicing fitness (ln): -2.79 ± 0.36
37 °C
  self-splicing fitness (ln): -2.09 ± 0.33

## CAUUAGCAAUAUUACGUUAU
37 °C
  self-splicing fitness (ln): -1.91 ± 0.22

## CAUUAGCAAUAUUACGUUGU
30 °C
  self-splicing fitness (ln): -3.95 ± 0.23
37 °C
  self-splicing fitness (ln): -2.75 ± 0.22

## CCAAAGCAAUAUUACGAAAC
30 °C
  self-splicing fitness (ln): -3.13 ± 0.2
37 °C
  self-splicing fitness (ln): -2.95 ± 0.34

## CCAAAGCAAUAUUACGAAAG
30 °C
  self-splicing fitness (ln): -1.14 ± 0.088
37 °C
  self-splicing fitness (ln): -0.678 ± 0.11

## CCAAAGCAAUAUUACGAACU
30 °C
  self-splicing fitness (ln): -2.89 ± 0.29
37 °C
  self-splicing fitness (ln): -2.13 ± 0.38

## CCAAAGCAAUAUUACGACGG
30 °C
  self-splicing fitness (ln): -3.1 ± 0.14
37 °C
  self-splicing fitness (ln): -2.43 ± 0.19

## CCAAAGCAAUAUUACGAGAU
30 °C
  self-splicing fitness (ln): -3.13 ± 0.2
37 °C
  self-splicing fitness (ln): -2.5 ± 0.23

## CCAAAGCAAUAUUACGAGCU
30 °C
  self-splicing fitness (ln): -3.38 ± 0.22
37 °C
  self-splicing fitness (ln): -2.14 ± 0.22

## CCAAAGCAAUAUUACGAGUC
30 °C
  self-splicing fitness (ln): -3.73 ± 0.2
37 °C
  self-splicing fitness (ln): -2.04 ± 0.19

## CCAAAGCAAUAUUACGCAAC
30 °C
  self-splicing fitness (ln): -1.96 ± 0.1
37 °C
  self-splicing fitness (ln): -2.53 ± 0.23

## CCAAAGCAAUAUUACGCAUC
30 °C
  self-splicing fitness (ln): -3.89 ± 0.16
37 °C
  self-splicing fitness (ln): -3.05 ± 0.16

## CCAAAGCAAUAUUACGCCCA
30 °C
  self-splicing fitness (ln): -2.49 ± 0.33
37 °C
  self-splicing fitness (ln): -2.72 ± 0.34

## CCAAAGCAAUAUUACGCCUU
30 °C
  self-splicing fitness (ln): -3.62 ± 0.34
37 °C
  self-splicing fitness (ln): -2.88 ± 0.32

## CCAAAGCAAUAUUACGCGAG
30 °C
  self-splicing fitness (ln): -2.62 ± 0.098
37 °C
  self-splicing fitness (ln): -1.42 ± 0.094

## CCAAAGCAAUAUUACGCGGA
30 °C
  self-splicing fitness (ln): -3.47 ± 0.22
37 °C
  self-splicing fitness (ln): -2.76 ± 0.3

## CCAAAGCAAUAUUACGCUGA
30 °C
  self-splicing fitness (ln): -4.48 ± 0.36
37 °C
  self-splicing fitness (ln): -2.75 ± 0.19

## CCAAAGCAAUAUUACGCUUG
30 °C
  self-splicing fitness (ln): -3.7 ± 0.18
37 °C
  self-splicing fitness (ln): -2.93 ± 0.2
